{"source": "the supplement of paper PMC10126150", "note": "± gives the standard deviation of the averaged measurements.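 Note: ATP exposure 15 min at 22 °C before imaging.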", "data": [{"test_system": "ATP", "test": "switch fluorescence ratio, 500 uM ATP over buffer (Cy3 cluster intensity, sum of 5 cycles each) (fold (ratio)); higher = stronger signal-on switching upon ATP binding; sequences stand for … in TCGTCGGCAGCGTCAGATGTGTATAAGAGACAGTTTTTTTTTTTTTTTTTTTTTTTTT…TC", "conditions": "aptamer strand: ATP DNA aptamer (quencher-CACCTGGGGGAGTATTGCGGAGGAAGG + anchor), 100 nM annealed; ATP concentration: 500 uM", "outline": "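The fluorescence ratio divides summed target-cycle Cy3 intensity by summed buffer-cycle Cy3 intensity for each cluster and is averaged per switch-domain sequence. Cy3-labelled switching-strand clusters on a modified Illumina MiSeq flow-cell were annealed to 100 nM quencher-labelled ATP aptamer, then imaged in selection buffer and again after 15 min with 500 uM ATP at 22 °C. Five such cycles were run, with NaOH stripping and re-annealing between them, and clusters outside 100-1000 RFU were excluded.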", "values": [{"sequence": "TTAGAAAAAG", "switch fluorescence ratio": "0.9811 ± 0.0052"}, {"sequence": "TTAGAAATGT", "switch fluorescence ratio": "1.42 ± 0.84"}, {"sequence": "TTAGAACAAG", "switch fluorescence ratio": "1.01 ± 0.019"}, {"sequence": "TTAGAACTGA", "switch fluorescence ratio": "1.02 ± 0.023"}, {"sequence": "TTAGAAGCCT", "switch fluorescence ratio": "1.14 ± 0.02"}, {"sequence": "TTAGAAGGTA", "switch fluorescence ratio": "0.995 ± 0.035"}, {"sequence": "TTAGAATGGG", "switch fluorescence ratio": "1.12 ± 0.14"}, {"sequence": "TTAGAATGTA", "switch fluorescence ratio": "0.99 ± 0.023"}, {"sequence": "TTAGAGAGGA", "switch fluorescence ratio": "0.987 ± 0.026"}, {"sequence": "TTAGAGGCAG", "switch fluorescence ratio": "0.967 ± 0.025"}, {"sequence": "TTAGAGGCGC", "switch fluorescence ratio": "1.035 ± 0.0095"}, {"sequence": "TTAGAGGGAG", "switch fluorescence ratio": "1.03 ± 0.042"}, {"sequence": "TTAGAGGGCA", "switch fluorescence ratio": "0.99086 ± 0.00097"}, {"sequence": "TTAGAGGTAA", "switch fluorescence ratio": "1.01 ± 0.019"}, {"sequence": "TTAGAGTACG", "switch fluorescence ratio": "1.036 ± 0.0075"}, {"sequence": "TTAGATAGTA", "switch fluorescence ratio": "1.01 ± 0.043"}, {"sequence": "TTAGATGAAG", "switch fluorescence ratio": "0.987 ± 0.031"}, {"sequence": "TTAGATGGGG", "switch fluorescence ratio": "1.01 ± 0.11"}, {"sequence": "TTAGATTACG", "switch fluorescence ratio": "0.998 ± 0.021"}, {"sequence": "TTAGCATATA", "switch fluorescence ratio": "2.42 ± 1.9"}, {"sequence": "TTAGCATGAT", "switch fluorescence ratio": "1.14 ± 0.2"}, {"sequence": "TTAGCCACTT", "switch fluorescence ratio": "1.06 ± 0.066"}, {"sequence": "TTAGCCCTCA", "switch fluorescence ratio": "0.981 ± 0.014"}, {"sequence": "TTAGCGACGG", "switch fluorescence ratio": "0.992 ± 0.03"}, {"sequence": "TTAGCGGGTT", "switch fluorescence ratio": "0.988 ± 0.048"}, {"sequence": "TTAGCGGT", "switch fluorescence ratio": "1.004 ± 0.0093"}, {"sequence": "TTAGCTTTGA", "switch fluorescence ratio": "0.992 ± 0.022"}, {"sequence": "TTAGGAGCTT", "switch fluorescence ratio": "1 ± 0.014"}, {"sequence": "TTAGGATAGG", "switch fluorescence ratio": "1.005 ± 0.0021"}, {"sequence": "TTAGGCACGC", "switch fluorescence ratio": "1.01 ± 0.023"}, {"sequence": "TTAGGCGCCC", "switch fluorescence ratio": "0.981 ± 0.029"}, {"sequence": "TTAGGCGGGG", "switch fluorescence ratio": "1 ± 0.061"}, {"sequence": "TTAGGCGTGG", "switch fluorescence ratio": "1.017 ± 0.006"}, {"sequence": "TTAGGCTAAT", "switch fluorescence ratio": "1.02 ± 0.025"}, {"sequence": "TTAGGCTGCG", "switch fluorescence ratio": "1.06 ± 0.1"}, {"sequence": "TTAGGGACAA", "switch fluorescence ratio": "1.039 ± 0.0064"}, {"sequence": "TTAGGGAGAG", "switch fluorescence ratio": "0.996 ± 0.016"}, {"sequence": "TTAGGGATGG", "switch fluorescence ratio": "0.992 ± 0.023"}, {"sequence": "TTAGGGCTTG", "switch fluorescence ratio": "0.992 ± 0.039"}, {"sequence": "TTAGGGGAAT", "switch fluorescence ratio": "1.43 ± 0.75"}, {"sequence": "TTAGGGGAGG", "switch fluorescence ratio": "0.9925 ± 0.0098"}, {"sequence": "TTAGGGGCGC", "switch fluorescence ratio": "0.985 ± 0.014"}, {"sequence": "TTAGGGGGAG", "switch fluorescence ratio": "1.03 ± 0.065"}, {"sequence": "TTAGGGGGCT", "switch fluorescence ratio": "1 ± 0.033"}, {"sequence": "TTAGGGGGGA", "switch fluorescence ratio": "0.987 ± 0.032"}, {"sequence": "TTAGGGGGGC", "switch fluorescence ratio": "1.02 ± 0.053"}, {"sequence": "TTAGGGGGGG", "switch fluorescence ratio": "1 ± 0.052"}, {"sequence": "TTAGGGGGTA", "switch fluorescence ratio": "1.12 ± 0.27"}, {"sequence": "TTAGGTAACT", "switch fluorescence ratio": "1.01 ± 0.019"}, {"sequence": "TTAGGTCTCT", "switch fluorescence ratio": "0.977 ± 0.025"}, {"sequence": "TTAGGTTATC", "switch fluorescence ratio": "1.01 ± 0.016"}, {"sequence": "TTAGGTTCTA", "switch fluorescence ratio": "1.08 ± 0.12"}, {"sequence": "TTAGGTTGTT", "switch fluorescence ratio": "1.01 ± 0.013"}, {"sequence": "TTAGTAGAGT", "switch fluorescence ratio": "1 ± 0.013"}, {"sequence": "TTAGTATGGA", "switch fluorescence ratio": "0.9837 ± 0.0013"}, {"sequence": "TTAGTATTAC", "switch fluorescence ratio": "1.05 ± 0.029"}, {"sequence": "TTAGTCAATG", "switch fluorescence ratio": "0.999 ± 0.022"}, {"sequence": "TTAGTCATTC", "switch fluorescence ratio": "0.99 ± 0.038"}, {"sequence": "TTAGTCCCGC", "switch fluorescence ratio": "1.066 ± 0.0024"}, {"sequence": "TTAGTCGATA", "switch fluorescence ratio": "0.9767 ± 0.0021"}, {"sequence": "TTAGTCGGAG", "switch fluorescence ratio": "0.981 ± 0.01"}, {"sequence": "TTAGTCTTGA", "switch fluorescence ratio": "0.9796 ± 0.0028"}, {"sequence": "TTAGTGACA", "switch fluorescence ratio": "1.042 ± 0.0095"}, {"sequence": "TTAGTGACGT", "switch fluorescence ratio": "1.037 ± 0.0016"}, {"sequence": "TTAGTGATGT", "switch fluorescence ratio": "1.03 ± 0.0097"}, {"sequence": "TTAGTGGGTT", "switch fluorescence ratio": "1.01 ± 0.024"}, {"sequence": "TTAGTGTTTG", "switch fluorescence ratio": "1.02 ± 0.006"}, {"sequence": "TTAGTTATAT", "switch fluorescence ratio": "1.013 ± 0.0099"}, {"sequence": "TTAGTTATTA", "switch fluorescence ratio": "1.017 ± 0.0041"}, {"sequence": "TTAGTTGGGG", "switch fluorescence ratio": "1.01 ± 0.032"}, {"sequence": "TTAGTTGTAG", "switch fluorescence ratio": "0.993 ± 0.026"}, {"sequence": "TTAGTTTGGA", "switch fluorescence ratio": "0.959 ± 0.04"}, {"sequence": "TTAGTTTGGG", "switch fluorescence ratio": "1.02 ± 0.016"}, {"sequence": "TTAGTTTTTA", "switch fluorescence ratio": "0.991 ± 0.022"}, {"sequence": "TTATAAATCT", "switch fluorescence ratio": "1.008 ± 0.0092"}, {"sequence": "TTATAACCTG", "switch fluorescence ratio": "1.02 ± 0.037"}, {"sequence": "TTATAACGTA", "switch fluorescence ratio": "1.07 ± 0.044"}, {"sequence": "TTATAATTAT", "switch fluorescence ratio": "1.09 ± 0.092"}, {"sequence": "TTATACTGGG", "switch fluorescence ratio": "0.992 ± 0.012"}, {"sequence": "TTATAGATAT", "switch fluorescence ratio": "0.994 ± 0.015"}, {"sequence": "TTATAGGCAG", "switch fluorescence ratio": "0.987 ± 0.01"}, {"sequence": "TTATAGGCGT", "switch fluorescence ratio": "1 ± 0.02"}, {"sequence": "TTATAGGTGC", "switch fluorescence ratio": "1.11 ± 0.022"}, {"sequence": "TTATAGGTTA", "switch fluorescence ratio": "1.02 ± 0.015"}, {"sequence": "TTATATACCA", "switch fluorescence ratio": "1.03 ± 0.079"}, {"sequence": "TTATATATTT", "switch fluorescence ratio": "0.993 ± 0.015"}, {"sequence": "TTATATCAAT", "switch fluorescence ratio": "0.9999 ± 0.0041"}, {"sequence": "TTATATCGTT", "switch fluorescence ratio": "0.998 ± 0.017"}, {"sequence": "TTATATCTTG", "switch fluorescence ratio": "1.0191 ± 0.00086"}, {"sequence": "TTATATGGAG", "switch fluorescence ratio": "0.979 ± 0.034"}, {"sequence": "TTATATGGTG", "switch fluorescence ratio": "0.98 ± 0.041"}, {"sequence": "TTATATGTGA", "switch fluorescence ratio": "1.04 ± 0.011"}, {"sequence": "TTATATTCTG", "switch fluorescence ratio": "0.9893 ± 0.0041"}, {"sequence": "TTATATTTCG", "switch fluorescence ratio": "1 ± 0.032"}, {"sequence": "TTATCAATAA", "switch fluorescence ratio": "1.42 ± 0.57"}, {"sequence": "TTATCATAGG", "switch fluorescence ratio": "1.01 ± 0.012"}, {"sequence": "TTATCATAGT", "switch fluorescence ratio": "1.005 ± 0.0064"}, {"sequence": "TTATCCAGGC", "switch fluorescence ratio": "1.02 ± 0.12"}, {"sequence": "TTATCGAGGC", "switch fluorescence ratio": "1.06 ± 0.059"}, {"sequence": "TTATCGCAGA", "switch fluorescence ratio": "1 ± 0.015"}]}]}
